The values that follow come from publication PMC11661142 (bioRxiv, 2024).

Test [1] concerns the target T1, ScPex1^WT (Pex1-FLAG), S. cerevisiae (S. cerevisiae, UniProt P24004 1-1043).
T1 sequence: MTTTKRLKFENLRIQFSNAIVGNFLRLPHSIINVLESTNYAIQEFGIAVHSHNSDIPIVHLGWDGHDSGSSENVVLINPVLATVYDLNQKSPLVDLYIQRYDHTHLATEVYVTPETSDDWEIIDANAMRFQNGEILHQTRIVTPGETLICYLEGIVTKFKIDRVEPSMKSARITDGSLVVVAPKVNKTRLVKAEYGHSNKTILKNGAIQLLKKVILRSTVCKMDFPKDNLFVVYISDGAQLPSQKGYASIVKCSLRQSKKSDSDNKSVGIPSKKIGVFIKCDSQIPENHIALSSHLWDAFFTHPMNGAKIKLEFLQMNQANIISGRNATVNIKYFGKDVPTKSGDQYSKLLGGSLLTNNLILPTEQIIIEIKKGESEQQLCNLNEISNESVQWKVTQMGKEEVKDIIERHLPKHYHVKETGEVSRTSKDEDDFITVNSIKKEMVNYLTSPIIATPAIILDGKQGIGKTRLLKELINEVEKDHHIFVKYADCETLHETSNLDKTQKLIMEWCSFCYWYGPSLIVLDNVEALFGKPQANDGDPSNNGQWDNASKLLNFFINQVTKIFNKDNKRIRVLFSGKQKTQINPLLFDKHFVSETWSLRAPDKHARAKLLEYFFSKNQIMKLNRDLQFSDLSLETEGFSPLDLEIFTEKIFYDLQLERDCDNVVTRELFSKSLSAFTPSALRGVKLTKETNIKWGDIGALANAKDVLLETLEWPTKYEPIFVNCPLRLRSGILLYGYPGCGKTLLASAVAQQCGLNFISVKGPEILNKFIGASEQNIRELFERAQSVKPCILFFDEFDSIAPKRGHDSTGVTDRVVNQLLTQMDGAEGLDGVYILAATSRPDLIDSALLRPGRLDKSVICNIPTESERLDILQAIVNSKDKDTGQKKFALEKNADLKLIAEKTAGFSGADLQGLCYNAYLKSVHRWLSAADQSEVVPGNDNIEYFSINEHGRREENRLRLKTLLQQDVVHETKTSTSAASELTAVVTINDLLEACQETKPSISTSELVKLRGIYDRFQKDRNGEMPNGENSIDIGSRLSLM
In words: SEC.

The target of test [2] is T2, ScPex1^G700D (Pex1-FLAG G700D), S. cerevisiae (S. cerevisiae, UniProt P24004 1-1043, G700D).
T2 sequence: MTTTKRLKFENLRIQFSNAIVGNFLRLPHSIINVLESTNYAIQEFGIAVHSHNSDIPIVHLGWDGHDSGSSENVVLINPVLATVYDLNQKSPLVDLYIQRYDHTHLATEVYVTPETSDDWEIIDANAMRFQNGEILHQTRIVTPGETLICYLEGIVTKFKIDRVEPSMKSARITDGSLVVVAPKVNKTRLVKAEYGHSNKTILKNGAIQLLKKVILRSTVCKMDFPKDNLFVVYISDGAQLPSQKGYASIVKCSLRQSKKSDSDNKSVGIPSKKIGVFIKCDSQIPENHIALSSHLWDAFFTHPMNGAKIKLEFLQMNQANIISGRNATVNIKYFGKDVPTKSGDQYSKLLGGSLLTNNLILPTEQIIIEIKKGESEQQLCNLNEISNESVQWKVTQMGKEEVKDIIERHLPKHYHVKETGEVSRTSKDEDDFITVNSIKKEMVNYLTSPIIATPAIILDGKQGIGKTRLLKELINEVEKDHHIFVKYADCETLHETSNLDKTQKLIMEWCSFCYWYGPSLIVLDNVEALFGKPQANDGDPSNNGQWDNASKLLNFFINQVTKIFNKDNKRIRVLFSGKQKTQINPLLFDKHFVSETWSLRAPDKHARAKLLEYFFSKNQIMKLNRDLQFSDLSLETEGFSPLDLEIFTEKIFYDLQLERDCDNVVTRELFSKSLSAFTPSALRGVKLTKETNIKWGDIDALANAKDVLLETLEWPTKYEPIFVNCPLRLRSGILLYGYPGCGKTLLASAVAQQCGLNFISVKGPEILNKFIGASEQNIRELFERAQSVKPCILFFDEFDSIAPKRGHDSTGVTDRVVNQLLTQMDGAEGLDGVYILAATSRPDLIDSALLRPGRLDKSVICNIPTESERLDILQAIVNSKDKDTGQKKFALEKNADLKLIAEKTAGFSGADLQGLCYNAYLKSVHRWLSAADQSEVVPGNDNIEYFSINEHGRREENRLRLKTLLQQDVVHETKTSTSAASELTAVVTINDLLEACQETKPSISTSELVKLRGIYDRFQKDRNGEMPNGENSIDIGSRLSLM
Briefly: SEC. A general note: In gel filtration, larger molecules generally elute earlier.

B1: ScPex6 (His-Pex6), S. cerevisiae (natural protein)
chain: MKASLTFSLSGIYAPCSISRDIYLEYGDKKAECLYGTIRLPQYGPGCTPGKIVHCVLDDSLPFCSIVVPSKLFGFMPTQPTMDFCYFEPILDNVVPVLDSVTFLINEQLYSKLMDLPQEMQQIQFLHYKYNINSMETVVHSRDILTSGLCQILNCSPFPQGLVDFTETQLILVNDTEQKLSALKYANEDEEYALPKIGTNSALSIDLESLPCTISRDLLRPAPHINDDNSIYAFTDAETLLRLDVTSGSFITVSNMGCVRLVKLFVLLLPNGFKKRTIYAPPKIIASFPDCSVVTISKSNIGHTDIPIANQVFISRVGGWLQSQKCFQNIILTTLKKFFSESKRILCQNDLIPIAFDSSMADLNIAEENDESDDEDELGQYYKNDSLVWFFVTSAELDCFSKDNSHFIIDPNRTKLITTNITNRRPLPLSRSNLQRYYGFAETFYYDLHIFPYVRQLVNILETSFNCSQRGITLNASVLLHSTTNNVGKATMVRFASKYLGIHLLEIDCLSLTSNSRQLDSTSKIIGYIRAKCENVLPYASPAVIFLAHLDSILLDVNANQDPEAIKLQKSINFEMSKLLDDFTFKFPGTTFVGSVNNIDNVPSSFRSHMRFEILVPVPSEAQRLRIFQWYLSSHELNRDVQQKVPVSYMDNISFSSLSSYSAGLTPLDIKSIVETARMTATARFYQESKKCGWLPQSILITQEDLSKATSKARNEFSVSIGAPQIPNVTWDDIGGIDFVKGEILDTIDMPLKHPELFTSGMKKRSGILFYGPPGTGKTLMAKAIATNFSLNFFSVKGPELLNMYIGESEANVRRVFQKAREAKPCVIFFDEIDSVAPKRGNQGDSGGVMDRIVSQLLAELDGMSTDADGVFVIGATNRPDLLDEALLRPGRFDKLLYLGIPDTDTKQLNILEALTRKFVLDNDVKLIELAKLCPFNYTGADFYALCSDAMLNAMSRIARMVEKKVSQHNELTGENISTRRWFDKIATKEDTKVVVKMEDFLKAQEQLTPSVSRAELNHYEAVRANFEGA
With B1, the binding result in test [1] and in test [2] was “binds” in each case.
